In patent US20230296621A1:
Where “and” joins values, the source holds several entries; their conditions need not be identical. Equal entries are not always repeated.

Assays:
[1] = target: S sensors L15 + S25: S(aa 328-533)-15aa-LgBiT and S(aa 328-533)-25aa-SmBiT (SARS-CoV-2)
[2] = target: N sensors LN + SN: LgBiT-10aa-N(aa 44-257) and SmBiT-10aa-N(aa 44-257) (SARS-CoV-2); assay: spLUC, antibody dilution 1000
[3] = target: N sensors LC + SC: N(aa 44-180)-10aa-LgBiT and N(aa 44-180)-10aa-SmBiT (SARS-CoV-2); assay: spLUC, antibody dilution 1000
[4] = target: N sensors LC2 + SC2: N(aa 44-257)-LgBiT and N(aa 44-257)-SmBiT (SARS-CoV-2); assay: spLUC, antibody dilution 1000
[5] = target: N sensors LN + SN: LgBiT-10aa-N(aa 44-257) and SmBiT-10aa-N(aa 44-257) (SARS-CoV-2); assay: spLUC, antibody dilution 100000
[6] = target: N sensors LC + SC: N(aa 44-180)-10aa-LgBiT and N(aa 44-180)-10aa-SmBiT (SARS-CoV-2); assay: spLUC, antibody dilution 100000
[7] = target: N sensors LC2 + SC2: N(aa 44-257)-LgBiT and N(aa 44-257)-SmBiT (SARS-CoV-2); assay: spLUC, antibody dilution 100000
[8] = target: N sensors LN + SN: LgBiT-10aa-N(aa 44-257) and SmBiT-10aa-N(aa 44-257) (SARS-CoV-2); assay: spLUC, antibody dilution 100
[9] = target: N sensors LC + SC: N(aa 44-180)-10aa-LgBiT and N(aa 44-180)-10aa-SmBiT (SARS-CoV-2); assay: spLUC, antibody dilution 100
[10] = target: N sensors LC2 + SC2: N(aa 44-257)-LgBiT and N(aa 44-257)-SmBiT (SARS-CoV-2); assay: spLUC, antibody dilution 100
[11] = target: N sensors LN + SN: LgBiT-10aa-N(aa 44-257) and SmBiT-10aa-N(aa 44-257) (SARS-CoV-2); assay: spLUC, antibody dilution 1000000
[12] = target: N sensors LC + SC: N(aa 44-180)-10aa-LgBiT and N(aa 44-180)-10aa-SmBiT (SARS-CoV-2); assay: spLUC, antibody dilution 1000000
[13] = target: N sensors LC2 + SC2: N(aa 44-257)-LgBiT and N(aa 44-257)-SmBiT (SARS-CoV-2); assay: spLUC, antibody dilution 1000000
[14] = target: N sensors LC + SC: N(aa 44-180)-10aa-LgBiT and N(aa 44-180)-10aa-SmBiT (SARS-CoV-2); assay: spLUC, antibody dilution 10000
[15] = target: N sensors LC2 + SC2: N(aa 44-257)-LgBiT and N(aa 44-257)-SmBiT (SARS-CoV-2); assay: spLUC, antibody dilution 10000

Substance	percent of signal competed [1] [%]	luminescence signal [2]	luminescence signal [3]	luminescence signal [4]	luminescence signal [5]	luminescence signal [6]	luminescence signal [7]	luminescence signal [8]	luminescence signal [9]	luminescence signal [10]	luminescence signal [11]	luminescence signal [12]	luminescence signal [13]	luminescence signal [14]	luminescence signal [15]
C105 Fab	90														
rabbit polyclonal anti-N protein antibody (Sino Biological, Cat#: 40588-T62-50)		677 and 684	4000 and 3560	2910 and 2790	146 and 145	811 and 592	475 and 327	1970 and 2200	10900 and 10200	9060 and 9420	138 and 104	598 and 600	332 and 281	1030 and 694	563 and 505
